# Test results as given in IntAct's records for PubMed 31515488.
# B1: Calcium-binding and coiled-coil domain-containing protein 2 (Homo sapiens), Q13137 (parent)
# chain: MEETIKDPPTSAVLLDHCHFSQVIFNSVEKFYIPGGDVTCHYTFTQHFIPRRKDWIGIFRVGWKTTREYYTFMWVTLPIDLNNKSAKQQEVQFKAYYLPKDDEYYQFCYVDEDGVVRGASIPFQFRPENEEDILVVTTQGEVEEIEQHNKELCKENQELKDSCISLQKQNSDMQAELQKKQEELETLQSINKKLELKVKEQKDYWETELLQLKEQNQKMSSENEKMGIRVDQLQAQLSTQEKEMEKLVQGDQDKTEQLEQLKKENDHLFLSLTEQRKDQKKLEQTVEQMKQNETTAMKKQQELMDENFDLSKRLSENEIICNALQRQKERLEGENDLLKRENSRLLSYMGLDFNSLPYQVPTSDEGGARQNPGLAYGNPYSGIQESSSPSPLSIKKCPICKADDICDHTLEQQQMQPLCFNCPICDKIFPATEKQIFEDHVFCHSL
# partner: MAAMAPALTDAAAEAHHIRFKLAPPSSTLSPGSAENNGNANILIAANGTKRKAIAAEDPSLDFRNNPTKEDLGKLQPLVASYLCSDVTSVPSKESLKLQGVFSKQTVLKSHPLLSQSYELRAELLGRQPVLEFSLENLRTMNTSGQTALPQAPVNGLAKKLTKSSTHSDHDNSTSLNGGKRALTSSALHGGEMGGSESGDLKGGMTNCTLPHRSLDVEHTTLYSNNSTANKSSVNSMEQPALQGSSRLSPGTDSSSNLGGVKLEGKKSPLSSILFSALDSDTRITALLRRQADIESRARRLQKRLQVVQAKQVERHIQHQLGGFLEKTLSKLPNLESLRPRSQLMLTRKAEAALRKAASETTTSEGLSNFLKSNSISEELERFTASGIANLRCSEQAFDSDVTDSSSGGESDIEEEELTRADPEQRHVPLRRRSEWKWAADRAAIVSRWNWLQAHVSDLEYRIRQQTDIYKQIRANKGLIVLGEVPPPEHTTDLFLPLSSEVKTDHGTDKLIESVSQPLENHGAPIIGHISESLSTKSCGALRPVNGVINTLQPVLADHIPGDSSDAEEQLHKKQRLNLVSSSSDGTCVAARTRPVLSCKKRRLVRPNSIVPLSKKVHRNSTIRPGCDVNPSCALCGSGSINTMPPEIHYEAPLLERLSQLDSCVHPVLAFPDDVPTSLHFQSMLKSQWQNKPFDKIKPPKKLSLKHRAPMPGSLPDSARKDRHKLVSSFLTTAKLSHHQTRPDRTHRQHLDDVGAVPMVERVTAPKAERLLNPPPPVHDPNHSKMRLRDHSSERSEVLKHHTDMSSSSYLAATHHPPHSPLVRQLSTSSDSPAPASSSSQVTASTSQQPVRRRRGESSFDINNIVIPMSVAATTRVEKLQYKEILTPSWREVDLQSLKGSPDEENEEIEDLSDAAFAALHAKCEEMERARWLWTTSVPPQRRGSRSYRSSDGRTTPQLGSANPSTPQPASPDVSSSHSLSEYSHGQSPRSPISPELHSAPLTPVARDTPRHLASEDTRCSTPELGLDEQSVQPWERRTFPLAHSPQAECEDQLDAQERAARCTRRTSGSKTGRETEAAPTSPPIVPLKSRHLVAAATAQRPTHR
# B2: Oxidative stress-induced growth inhibitor 1 (Homo sapiens), Q9UJX0 (parent)
# chain: MSSSRKDHLGASSSEPLPVIIVGNGPSGICLSYLLSGYTPYTKPDAIHPHPLLQRKLTEAPGVSILDQDLDYLSEGLEGRSQSPVALLFDALLRPDTDFGGNMKSVLTWKHRKEHAIPHVVLGRNLPGGAWHSIEGSMVILSQGQWMGLPDLEVKDWMQKKRRGLRNSRATAGDIAHYYRDYVVKKGLGHNFVSGAVVTAVEWGTPDPSSCGAQDSSPLFQVSGFLTRNQAQQPFSLWARNVVLATGTFDSPARLGIPGEALPFIHHELSALEAATRVGAVTPASDPVLIIGAGLSAADAVLYARHYNIPVIHAFRRAVDDPGLVFNQLPKMLYPEYHKVHQMMREQSILSPSPYEGYRSLPRHQLLCFKEDCQAVFQDLEGVEKVFGVSLVLVLIGSHPDLSFLPGAGADFAVDPDQPLSAKRNPIDVDPFTYQSTRQEGLYAMGPLAGDNFVRFVQGGALAVASSLLRKETRKPP
# partner: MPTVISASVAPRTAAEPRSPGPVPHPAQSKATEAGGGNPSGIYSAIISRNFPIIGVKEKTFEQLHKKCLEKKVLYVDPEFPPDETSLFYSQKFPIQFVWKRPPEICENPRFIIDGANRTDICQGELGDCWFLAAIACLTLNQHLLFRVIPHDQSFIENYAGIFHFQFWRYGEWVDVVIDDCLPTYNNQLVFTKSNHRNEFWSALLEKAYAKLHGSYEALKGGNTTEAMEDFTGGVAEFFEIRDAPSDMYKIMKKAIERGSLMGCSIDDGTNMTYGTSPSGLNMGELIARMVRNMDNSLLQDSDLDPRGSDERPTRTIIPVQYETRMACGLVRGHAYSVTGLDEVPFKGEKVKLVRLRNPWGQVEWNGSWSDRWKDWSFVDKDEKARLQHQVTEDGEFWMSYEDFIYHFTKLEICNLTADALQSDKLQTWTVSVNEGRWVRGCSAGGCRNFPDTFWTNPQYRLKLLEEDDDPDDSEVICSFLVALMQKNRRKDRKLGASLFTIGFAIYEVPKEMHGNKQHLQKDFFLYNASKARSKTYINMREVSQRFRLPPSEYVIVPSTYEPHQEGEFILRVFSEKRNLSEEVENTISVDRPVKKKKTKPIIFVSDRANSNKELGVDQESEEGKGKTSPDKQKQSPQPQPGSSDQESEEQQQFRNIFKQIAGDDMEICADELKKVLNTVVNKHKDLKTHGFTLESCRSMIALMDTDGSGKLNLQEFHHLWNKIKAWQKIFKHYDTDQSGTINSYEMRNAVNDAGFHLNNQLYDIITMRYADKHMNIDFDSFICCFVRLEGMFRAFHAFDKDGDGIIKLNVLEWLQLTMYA
# B3: Tuftelin-interacting protein 11 (Homo sapiens), Q9UBB9 (parent)
# chain: MSLSHLYRDGEGRIDDDDDERENFEITDWDLQNEFNPNRQRHWQTKEEATYGVWAERDSDDERPSFGGKRARDYSAPVNFISAGLKKGAAEEAELEDSDDEEKPVKQDDFPKDFGPRKLKTGGNFKPSQKGFAGGTKSFMDFGSWERHTKGIGQKLLQKMGYVPGRGLGKNAQGIINPIEAKQRKGKGAVGAYGSERTTQSMQDFPVVDSEEEAEEEFQKELSQWRKDPSGSKKKPKYSYKTVEELKAKGRISKKLTAPQKELSQVKVIDMTGREQKVYYSYSQISHKHNVPDDGLPLQSQQLPQSGKEAKAPGFALPELEHNLQLLIDLTEQEIIQNDRQLQYERDMVVNLFHELEKMTEVLDHEERVISNLSKVLEMVEECERRMQPDCSNPLTLDECARIFETLQDKYYEEYRMSDRVDLAVAIVYPLMKEYFKEWDPLKDCTYGTEIISKWKSLLENDQLLSHGGQDLSADAFHRLIWEVWMPFVRNIVTQWQPRNCDPMVDFLDSWVHIIPVWILDNILDQLIFPKLQKEVENWNPLTDTVPIHSWIHPWLPLMQARLEPLYSPIRSKLSSALQKWHPSDSSAKLILQPWKDVFTPGSWEAFMVKNIVPKLGMCLGELVINPHQQHMDAFYWVIDWEGMISVSSLVGLLEKHFFPKWLQVLCSWLSNSPNYEEITKWYLGWKSMFSDQVLAHPSVKDKFNEALDIMNRAVSSNVGAYMQPGARENIAYLTHTERRKDFQYEAMQERREAENMAQRGIGVAASSVPMNFKDLIETKAEEHNIVFMPVIGKRHEGKQLYTFGRIVIYIDRGVVFVQGEKTWVPTSLQSLIDMAK
# partner: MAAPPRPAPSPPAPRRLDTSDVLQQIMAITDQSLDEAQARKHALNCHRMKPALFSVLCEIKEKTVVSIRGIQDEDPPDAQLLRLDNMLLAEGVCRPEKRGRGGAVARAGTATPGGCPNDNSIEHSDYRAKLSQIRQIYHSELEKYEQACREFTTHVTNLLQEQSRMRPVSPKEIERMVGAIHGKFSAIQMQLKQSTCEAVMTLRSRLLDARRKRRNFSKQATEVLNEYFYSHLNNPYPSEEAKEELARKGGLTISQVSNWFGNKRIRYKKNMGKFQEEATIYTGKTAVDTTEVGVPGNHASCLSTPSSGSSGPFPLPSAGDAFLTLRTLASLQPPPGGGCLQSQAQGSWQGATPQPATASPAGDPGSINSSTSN
# Variants of: B1
# Settings: with kanl1_human KANSL1, Q7Z3B3
row,effect of a mutation on the interaction,Variant
1,with no effect,P389A
2,with no effect,T273A

# Variants of: B2
# Settings: with can3_human CAPN3, P20807
row,effect of a mutation on the interaction,Variant
1,with no effect,D320N
2,with no effect,S236L

# Variants of: B3
# Settings: with pbx4_human PBX4, Q9BYU1
row,effect of a mutation on the interaction,Variant
1,with no effect,S688L
2,with no effect,R8Q
